Reference: patent US20040018198A1 (Amgen, published 2004)

Legend:
[1] = molecular target: CA-IX-His-ECD (his-V5 tagged version of the CA IX protein, extracellular domain) (human, UniProt Q16790 38-414); test: ELISA on CA-IX-His-ECD
[2] = molecular target: CA IX catalytic domain protein (CA9-CD) (human, UniProt Q16790 138-391); test: ELISA on CA9-CD (catalytic domain)

| Binder | OD [1] [OD] | OD [2] [OD] |
| --- | --- | --- |
| AB-MN-XG1-023 (antibody, human IgG1, V domains shown, also called MN23; AB-MN-XG1-23) VH: QVQLQESGPGLVKPSQTLSLTCTVSGGSISSGGYYWSWIRQHPGKGLEWIGYIYYSGSTYYNPSLKSRVTISVDTSKNQFSLKLSSVTAADTAVYYCARENYDILTGFNWFDPWGQGTLVTVSS VL: DIQMTQSPSSVSASVGDRVTITCRASQGISSWLAWYQQKPGKAPKVLIYSTSRLQSGVPSRFSGSGSGTDFTLTISSLQPEDFATYYCQQADSFRTFGQGTKVEIK | 2.22 | 2.42 |
| AB-MN-21.10.1 (antibody, human IgG1, V domains shown, also called 21.10.1 g; AX014H21-10-1) VH: QLEQSGPGLVKPSETLSLTCTVSDGSISSSSYYWGWIRQPPGKGLEWIGSIYYSGSTYYNPSLKSRVTISVDTSKNQFSLKLSSVTAADTAVYYCARHGSFFDYWGQGTLVTVSS VL: not shown | 0.059 | – |
| AB-MN-22.8.1 (antibody, human IgG2, V domains shown, also called AX014H22-8-1) VH: SGPGLVKPSETLSLTCTVSGGSISSYYWSWIRQPPGKGLEWIGYIYYSGSTNYNPSLKSRVTISVDTSKNQFSLKLTSVTAADTAVYYCARDQHSSSVYYYYYGMDVWGQGTTVTVSS VL: ETQLTQSPGTLSLSPGERATLSCRASQSIYINYLAWYQQKPGQAPRLLISGASSRATGIPDRFSGSGSGTDFTLTISRLEPEDFAVYYCQQYGRSLTFGGGTEVEIKR | 2.41 | 2.77 |
| AB-MN-22.15 (antibody, human IgG2, V domains shown, also called AX014H22-15) VH: QVQLQESGPGLVKPSQTLSLTCTVSGGSISSGGYYWSWIRQHPGKGLEWIGYIYYSGYTYYNPSLKSRVTISVDTSKNQFSLKLSSVTAADTAVYYCARDRYYDILTGYYNYGMDVWGQGTTVTVSS VL: not shown | 0.831 | 2.53 |
| AB-MN-21.17.1 (antibody, human IgG1, V domains shown, also called 21.17.1 I; AX014H21-17-1) VH: QVQLQESGPGLVKPSETLSLTCTVSGGSISSYYWSWIRQPAGKGLEWIGRIYTSGSTNYNPSLKSRVTMSVDTSKNQFSLKLSSVTAADTAVYYCARDGQWLEDYGMDVWGQGTTVTV VL: EIVLTQSPGTLSLSPGERATLSCWASQSVFSNYLAWYQQKPGQAPRLLIYGASSRATGIPDRFSGSGSGTDFPLTISRLEPEDFAVYYCQQYGSSPLTFGGGTKVEIK | 1.85 | 2.66 |
| AB-MN-21.2.1 (antibody, human IgG1, V domains shown, also called AX014H21-2-1) VH: QVQLQESGPGLVKPSQTLSLTCTVSGGSISSGGYYWNWIRQHPGKGLEWIGYIYYSGSTYYNPSLKSRVTISVDTSKNQFSLKLSSVTAADTAVYYCARTYYDILTGYPDAFDIWGQGTMVTVSS VL: DIQMTQSPSSLSASVGDRVTITCRASQDIRNDLGWYQQKPGKAPKRLICAASSLQSGVPSSFSGSGSGTEFTLTISSLQPEDFATYYCLQHNSYPWTFGQGTKVEIK | 1.21 | 2.48 |
| AB-MN-22.25 (antibody, human IgG2, V domains shown, also called AX014H22-25) VH: QLQLQESGPGLVKPSETLSLTCTVSDGSISSSSYYWGWIRQPPGKGLEWIGSIYYSGSTYYNPSLKSRVTISVDTSKNQFSLKLSSVTAADTAVYYCARHGSFFDYWGQGTLVTVSS VL: DIQMTQSPSSLSASVGDRVTITCRASQGIRNDLGWYQQKPGKAPKRLIYAASSLQSGVPSRFSGSGSGTEFTLTISSLQPEDFTTYYCLQYKSYPWTFGQGTKVEIK | 1.84 | 2.48 |
| AB-MN-22.14 (antibody, human IgG2, V domains shown, also called AX014H22-14) VH: QVQLQESGPGLVKPSETLSLTCTVSGGSVISGGYYWSWIRQPPGKGLEWIGYIYYSGSSNYNPSLKSRVTISVDASKNQFSLRLSSVTAADTAVYYCARSMVRGVSFDYWGQGTLVTVSS VL: DIQMTQSPSSLSASVGDRVTITCRASQGIRNDLGWYQQKPGKAPKRLIYAASSLQSGVPSRFSGSGSGTEFTLTISSLQPEDFATYYCLQHNSYPLTFGGGTKVEIK | 0.763 | 2.03 |
| AB-MN-22.28.1 (antibody, human IgG2, V domains shown, the numbering there is inconsistent; also called AX014H22-28-1) VH: QVQLEQSGGGLVQPGGSLRLSCAASGFTFSSYAMSWVRQAPGKGLEWVSAISGSGGGTYYADSVKGRFTISRDNSKNTLYLQMNSLRAEDTAVYYCASGRYYYYYDMDVWGQGTTVTVSS VL: DIRLTQSPSSLSASVGDRVTITCRASQGIRNDLGWYQQKPGKAPKRLIYAASSLQSGVPSRFSGSGSGTEFTLTISSLQPEDFATYYCLQHNSYPLTFGGGTKVEIK | 0.404 | 2.54 |
| AB-MN-22.18 (antibody, human IgG2, V domains shown, also called AX014H22-18) VH: QVQLQESGPGLVKPSQTLSLTCTVSGGSISSGGYYWNWIRQHPGKGLEWIGYIYYSGSTYYNPSLKSRVTISVDTSKNQFSLKLSSVTAADTAVYYCARTYYDILTGYPDAFDIWGQGTMVTVSS VL: DIQMTQSPSSLSASVGDRVTITCRASQDIRNDLGWYQQKPGKAPKRLICAASSLQSGVPSSFSGSGSGTEFTLTISSLQPEDFATYYCLQHNSYPWTFGQGTKVEIK | 2.23 | 2.75 |
| AB-MN-22.20 (antibody, human IgG2, V domains shown, also called AX014H22-20) VH: QVQLQESGPGLVKPSQTLSLTCTVSGGSISSGGSYWTWIRQHPGKGLEWIGYIYYSGNTYYNPSLKSRVTISVDTSKNQFSLKLSSVTAADTAVYYCARTYYDILTGYPDAFDIWGQGTMVTVSS VL: DIQMTQSPSSLSASVGDRVTITCRASQGIRNDLGWYQQKPGKAPKRLIYAASSLQSGVPSRFSGSGSGTEFTLTISSLQPEDFTTYYCLQYKSYPWTFGQGTKVEIK | 1.72 | 2.71 |
| AB-MN-XG1-080 (antibody, human IgG1, V domains shown, also called MN80) VH: QVQLQESGPGLVKPSETLSLTCTVSGGSISSYYWSWIRQPPGKGLEWIGYIYYSGSTNYNPSLKSRVTISVDTSKNQFSLKLSSVTAADTAVYYCARDTRTIFGVVSGMDVWGQGTTVTVSS VL: EIVLTQSPGTLSLSPGERATLSCRASQSVYSSYLAWYQQKPGQAPRLLIYGASSRAPGIPDRFSGSGSGTDFTLTISRLEPEDFAVYYCQHYGRSLTFGGGTKVEIK | 2.71 | 2.85 |
| AB-MN-22.19 (antibody, human IgG2, V domains shown, also called AX014H22-19) VH: QVQLQESGPGLVKPSETLSLTCTVSGGSISFYYWNWIRQPAGKGLEWVGRIYTSGSTNYNPSLKSRVTMSVDTSKNQFSLKLSSVTAADTAVYYCARGGFLEWDYYYGMDVWGQGTTVTVSS VL: EIVLTQSPGTLSLSPGERATLSCRASQSVSVTYLAWYQQKPGQAPRLLIYGASSRATGIPDRFSGSGSGTDFTLTISRLEPEDFAVYYCQQYGSSVTFGGGTKVEIK | 2.12 | 3.01 |
| AB-MN-XG1-141 (antibody, human IgG1, V domains shown, also called MN141) VH: QVQLQESGPGLVKPSETLSLTCSVSGGSISSYYWSWIRQPPGKGLEWIGYIYYSGSTNYNPSLKSRVTISVDTSNNHFSLKLSSVTAADTAVYYCARDTRTIFGVVSGMDVWGQGTTVTVSS VL: EIVLTQSPGTLSLSPGERATLSCRTSQTVYSTYLAWYQQKPGQAPRLLIYGASSRATGIPDRFSGSGSGTDFTLTISRLEPEDFAVFYCQHYGRSLTFGGGTKVEIK | 2.56 | 2.56 |
| AB-MN-22.13.1 (antibody, human IgG2, V domains shown, also called AX014H22-13-1) VH: RVQLVESGGGLVQPGGSLRLSCAASGFTFSRYSMNWVRQAPGKGLEWVSYISSSSSTIYYADSVKGRFTISRDSAKNSLYLQMNSLRDEDTAVYYCARSLRSGGMDVWGQGTTVTVSS VL: not shown | 1.85 | 0.118 |
| AB-MN-21.6.1 (antibody, human IgG1, V domains shown, also called AX014H21-6-1) VH: QVQLQESGPGLVKPSQTLSLTCTVSGGSISSGGYYWSWIRQHPGKGLEWIGYIYYSGSTYYNPSLKSRVTISVDTSKNQFSLKLSSVTAADTAVYYCARAGKYYGSGSYLDYWGQGTLVTVSS VL: not shown | 0.618 | 2.25 |
| AB-MN-21.5.2 (antibody, V domains shown, also called 21.5.2 n; AX014H21-5-2) VH: QVQLEQSGPGLVKPSQTLSLTCTVSGGSISSGGRYWSWIRQHPGKGLEWIGYIYYSGSTYYNPSLKSRVTISIDTSKNQFSLKLSSVTAADTAVYYCARAGTYYGSGSYLDYWGQGTLVTVSS VL: not shown | 0.893 | 2.43 |
| AB-MN-XG1-051 (antibody, human IgG1, V domains shown, also called MN51; AB-MN-XG1-51) VH: EVQLVEFGGGLVKPGGSLRLSCAASGFTFSSFRMNWVRQAPGEGLEWVSSITSSSSYIYYADSVKGRFTISRDNAKNSLYLQMNSLRAEDTAVYYCARFTAMALDYWGQGTLVTVSS VL: DIQMTQSPSSLSASVGDRVTITCRASQGIFNYLAWYQQKPGKVPKLLIYAASTLQSGVPSRFSGSGSGTDFTLTISSLQPEDVAVYYCLKYNSAPWTFGQGTKVEIK | 2.47 | 2.88 |
| AB-MN-21.1.1 (antibody, human IgG1, V domains shown, also called 21.1.1 a; AX014H21-1-1) VH: QVQLQESGPGLVKPSETLSLTCTVSGGSISSYYWSWIRQPPGKGLEWIGYIYYSGSTNYNPSLKSRVTISVDTSKNQFSLKLSSVTAADTAVYYCARRGYDILTGYDYFDYWGQGTLVTVSS VL: DIQMTQSPSSVSASVGDRVTITCRASQGISIWLTWYQQKPGKAPKLLIYAASSLQSGVPSRFSGSGSGTDFTLTISSLQPEDFATYYCQQANSFPITFGQGTRLEIK | 1.64 | 2.5 |
| AB-MN-22.17 (antibody, human IgG2, V domains shown, also called AX014H22-17) VH: QVQLQESGPGLVKPSETLSLTCTVSGGSISSYYWSWIRQPPGKGLEWIGYIYYSGSTNYNPSLKSRVTISVDTSKNQFSLKLSSVTAADTAVYYCARRGYDILTGYDYFDYWGQGTLVTVSS VL: DIQMTQSPSSVSASVGDRVTITCRASQGISIWLTWYQQKPGKAPKLLIYAASSLQSGVPSRFSGSGSGTDFTLTISSLQPEDFATYYCQQANSFPITFGQGTRLEIK | 2.16 | 2.57 |
| AB-MN-22.12 (antibody, human IgG2, V domains shown, also called AX014H22-12) VH: QVQLQESGPGLVKPSETLSLTCTVSGGSISSYYWSWIRQPPGKGLEWIGYIYSSGSTNYNPSLKSRVTISVDTSKNQFSLKLSSVTAADTAVYYCARDQHSSSFYYYYYGMDVWGQGTTVTVSS VL: DIQMTQSPSSVSASVGDRVTITCRASQGISSWLAWYQQKPGKAPKLLIYAASSLQSGVPSRFSGSGSGTDFTLTISSLQPEDFATYYCQQANSFPLTFGPGTKVDIK | 2.38 | 2.58 |
| AB-MN-21.14.1 (antibody, human IgG1, V domains shown, also called 21.14.1 j; AX014H21-14-1) VH: QVQLQESGPGLVKPSETLSLTCTVSGGSISSYYWSWIRQPPGKGLEWIGYIYYSGSTNYNPSLKSRVTISVDTSKNQFSLKLSSVTAADTAVYYCARRGYDFLTGYDYFDYWGQGTLVTVSS VL: DIQMTQSPSSVSASVGDRVTITCRASQGISSWLAWFQQKPGKAPKLLIYAASSLQSGVPSRFSGSGSGTDFTLTISSLQPEDFATYYCQQANSFPITFGQGTRLEIK | 1.78 | 2.47 |
| AB-MN-22.7 (antibody, human IgG2, V domains shown, also called AX014H22-7) VH: QVQLVESGGGVVQPGRSLRLSCAASGFTFSSYGMHWVRQAPGKGLEWVAVISYDGSNKYYADSVKGRFTFSRDNSKNTLYLQMNSLRAEDTAVYYCARRGITMVRGAPSYYGMDVWGQGTTVTVSS VL: not shown | 0.097 | 0.715 |
